Reference: publication PMC5566480

Columns and labels:
[1] = target: Recombinant human Toll-like receptor 2 (rTLR2) (UniProt O60603); assay: ELISA; competition: synthesized peptides (1 μM, and dose-dependent for IC50) against the binding of rLipL32WT to rTLR2
[2] = target: Recombinant human Toll-like receptor 2 (rTLR2) (UniProt O60603); assay: ELISA; dose-dependent; rTLR2 coated, LipL32 variants 0 to 2 μM in PBS, 90 min at 37 °C, anti-His6 detection; in the presence of 1 µM Ca2+; Kd from a one-site fit
[3] = target: Recombinant human Toll-like receptor 2 (rTLR2) (UniProt O60603); assay: ELISA; dose-dependent; rTLR2 coated, LipL32 variants 0 to 2 μM in PBS, 90 min at 37 °C, anti-His6 detection; in the presence of 1 µM EGTA; Kd from a one-site fit
[4] = target: Recombinant human Toll-like receptor 2 (rTLR2) (UniProt O60603); assay: ELISA; details: parent: est. 0.37; read off a plot
[5] = target: Recombinant human Toll-like receptor 2 (rTLR2) (UniProt O60603); assay: AFM force spectroscopy; rTLR2 covalently fixed on mica, LipL32 or variant coupled to the AFM tip (glutaraldehyde); force-distance curves, maximum distribution force and binding frequency; anti-TLR2 antibody as neutralising control

Chain of Recombinant human Toll-like receptor 2 (rTLR2) (O60603 21-784): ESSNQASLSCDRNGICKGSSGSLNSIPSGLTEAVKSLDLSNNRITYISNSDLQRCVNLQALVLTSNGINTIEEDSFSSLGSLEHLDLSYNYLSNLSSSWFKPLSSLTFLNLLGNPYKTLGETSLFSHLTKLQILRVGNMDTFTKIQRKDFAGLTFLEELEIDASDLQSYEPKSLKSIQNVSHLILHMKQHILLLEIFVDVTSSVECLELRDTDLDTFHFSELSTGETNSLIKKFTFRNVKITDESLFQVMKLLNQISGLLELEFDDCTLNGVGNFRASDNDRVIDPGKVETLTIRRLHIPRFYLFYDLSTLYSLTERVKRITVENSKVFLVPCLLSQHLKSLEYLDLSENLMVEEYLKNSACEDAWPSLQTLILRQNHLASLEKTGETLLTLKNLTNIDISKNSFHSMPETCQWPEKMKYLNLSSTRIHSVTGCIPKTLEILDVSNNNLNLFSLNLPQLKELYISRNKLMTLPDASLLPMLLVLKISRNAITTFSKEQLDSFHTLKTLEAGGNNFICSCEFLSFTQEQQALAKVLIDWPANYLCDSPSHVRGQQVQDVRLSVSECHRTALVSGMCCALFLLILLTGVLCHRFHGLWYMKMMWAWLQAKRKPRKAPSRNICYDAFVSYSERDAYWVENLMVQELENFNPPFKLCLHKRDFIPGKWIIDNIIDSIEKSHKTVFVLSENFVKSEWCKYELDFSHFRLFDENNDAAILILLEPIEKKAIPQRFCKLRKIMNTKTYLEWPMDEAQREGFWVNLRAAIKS

Row | Substance | IC50 [1] [nM] | Kd [2] [nM] | Kd [3] [nM] | other results
1 | N20 peptide (1–20 residues of LipL32) | 90 |  |  | 
2 | C25 peptide (248–272 residues of LipL32) | 140 |  |  | 
3 | rLipL32 D196A variant (natural protein) |  | 160 | 160 | 
4 | Recombinant LipL32 wild type, mature form (rLipL32; 21-272) L263S |  |  |  | response [4]: 0.29 OD450nm
5 | N50 peptide (1–50 residues of LipL32) | 70 |  |  | 
6 | Recombinant LipL32 wild type, mature form (rLipL32; 21-272) (natural protein) |  | 130 | 450 | maximum distribution force (AFM) [5]: 55.3 pN
7 | rLipL32 D195A variant (natural protein) |  | 100 | 120 | 
